# B1: mRNA 3'-end-processing protein YTH1 (Saccharomyces cerevisiae), Q06102 (parent)
# chain: MSLIHPDTAKYPFKFEPFLRQEYSFSLDPDRPICEFYNSREGPKSCPRGPLCPKKHVLPIFQNKIVCRHWLRGLCKKNDQCEYLHEYNLRKMPECVFFSKNGYCTQSPDCQYLHIDPASKIPKCENYEMGFCPLGSSCPRRHIKKVFCQRYMTGFCPLGKDECDMEHPQFIIPDEGSKLRIKRDDEINTRKMDEEKERRLNAIINGEV
# partner: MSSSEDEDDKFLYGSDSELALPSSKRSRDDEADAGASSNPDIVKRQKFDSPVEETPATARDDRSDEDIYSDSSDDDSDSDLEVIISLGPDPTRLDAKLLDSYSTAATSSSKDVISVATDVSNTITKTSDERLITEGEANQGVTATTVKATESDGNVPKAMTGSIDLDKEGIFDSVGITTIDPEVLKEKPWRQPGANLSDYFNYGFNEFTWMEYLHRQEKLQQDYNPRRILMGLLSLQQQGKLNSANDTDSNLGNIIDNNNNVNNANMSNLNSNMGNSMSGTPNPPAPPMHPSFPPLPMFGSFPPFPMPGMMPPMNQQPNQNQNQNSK
# Variants of: B1
# Conditions: with fip1_yeast FIP1, P45976
row,effect of a mutation on the interaction,Variant
1,decreasing interaction,G130R

# From IntAct's records for PubMed 12626716
